The values that follow come from patent US20190315842A1.

For assay [1], the target named is histones. Put plainly: AtheNA Multi-Lyte ANA, Ab at 50 ug/ml.
Assay [2] has as its target histones. Put plainly: AtheNA Multi-Lyte ANA, Ab at 12.5 ug/ml.
In assay [3] the target is histones. In words: AtheNA Multi-Lyte ANA, Ab at 6.25 ug/ml.
Assay [4] concerns the target histones. In words: AtheNA Multi-Lyte ANA, Ab at 25 ug/ml.
The target in assay [5] is histones. In words: AtheNA Multi-Lyte ANA, Ab at 16.7 ug/ml.
The target in assay [6] is histones. Put plainly: AtheNA Multi-Lyte ANA, Ab at 8.35 ug/ml.
Assay [7] has as its target histones. In words: AtheNA Multi-Lyte ANA, Ab at 2.088 ug/ml.
In assay [8] the target is histones. Put plainly: AtheNA Multi-Lyte ANA, Ab at 4.175 ug/ml.
Assay [9] concerns the target histones. Put plainly: AtheNA Multi-Lyte ANA, Ab at 28.3 ug/ml.
For assay [10], the target named is histones. In words: AtheNA Multi-Lyte ANA, Ab at 3.538 ug/ml.
In assay [11] the target is histones. Put plainly: AtheNA Multi-Lyte ANA, Ab at 7.075 ug/ml.
Assay [12] concerns the target sclerosis autoantigen (Scl-70) (UniProt P11387). Put plainly: AtheNA Multi-Lyte ANA, Ab at 50 ug/ml.
Assay [13] shares this target. In words: AtheNA Multi-Lyte ANA, Ab at 12.5 ug/ml.
Assay [14] has the same target. In words: AtheNA Multi-Lyte ANA, Ab at 6.25 ug/ml.

sclerosis autoantigen (Scl-70), sequence (P11387 2-765 limits assumed): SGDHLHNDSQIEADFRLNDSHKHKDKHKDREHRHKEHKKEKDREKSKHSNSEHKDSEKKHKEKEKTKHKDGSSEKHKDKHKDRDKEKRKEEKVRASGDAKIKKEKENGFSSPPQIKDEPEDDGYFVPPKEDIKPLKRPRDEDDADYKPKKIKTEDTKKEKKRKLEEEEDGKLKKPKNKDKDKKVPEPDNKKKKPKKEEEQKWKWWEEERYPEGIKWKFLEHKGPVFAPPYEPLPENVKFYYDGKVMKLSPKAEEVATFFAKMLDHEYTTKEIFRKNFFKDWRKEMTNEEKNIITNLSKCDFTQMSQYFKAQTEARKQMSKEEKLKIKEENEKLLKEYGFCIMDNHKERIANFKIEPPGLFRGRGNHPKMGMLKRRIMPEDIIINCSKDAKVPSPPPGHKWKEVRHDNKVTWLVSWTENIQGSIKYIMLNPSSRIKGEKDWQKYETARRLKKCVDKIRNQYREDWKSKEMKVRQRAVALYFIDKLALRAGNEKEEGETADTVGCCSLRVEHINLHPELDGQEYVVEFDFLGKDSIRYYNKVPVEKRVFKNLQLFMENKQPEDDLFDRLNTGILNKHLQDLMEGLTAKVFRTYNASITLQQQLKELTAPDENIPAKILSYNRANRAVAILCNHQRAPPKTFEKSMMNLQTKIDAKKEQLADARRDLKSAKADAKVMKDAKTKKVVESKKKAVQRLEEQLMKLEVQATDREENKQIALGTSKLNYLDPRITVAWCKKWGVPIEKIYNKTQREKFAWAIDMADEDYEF

B1: Ab7960/293i (antibody, IgG1, V domains shown)
VH: LVESGGGVVQPGKSLRLSCVASGFSFSTYGMHWVRQAPGKGLEWVAVMSFDGKTKYYADSVKGRFTISRDNPKNTLYLQMNSLRSEDTAVYYCAKGGAAAAVFDSWGPGILLTVSS
VL: MTQSPNSLAVSLGGRATINCKASQSILYRSNNKNYLAWYQHKAGQPPKLLIYWASTRESGVPERFSGSGSRTDFTLTINGLQAEDVAVYYCQQYYNPPWTFGQGTKVEIK
B1: the AtheNA signal in [1] worked out at 31; in [2], 26; in assay [3] it was 18.

B2: Ab7961/293i (antibody, IgG1, V domains shown)
VH: LVESGGGVVQPGKSLRLSCVASGFTFSSYGMHWVRQAPGKGLEWVAVMSFDGKTKYYADSVKGRFTISRDNPKNTLYLQMNSLRSEDTAVYYCAKGGAAAAVFDSWGQGILLTVSS
VL: MTQSPNSLAVSLGGRATINCKTSQSILYRSNNKNYLAWYQHKSGQPPKLLIYWASTRESGVPDRFSGSGSRTDFTLTISGLQAEDVAVYYCQQYYNPPWTFGQGTKVEIK
Consider B2, for which the AtheNA signal is 77 in assay [4], 77 in assay [1], 69 in [2] and 62 in [3].

B3: Ab7979 (antibody, IgG1, V domains shown)
VH: LVESGGGVVQPGKSLRLSCVASGFTFSTYGMHWVRQAPGKGLEWVAVMSFDGKTKYYADSVKGRFTISRDNPKNTLYLQMNSLRSEDTAVYYCAKGGAAAAVFDSWGQGILLTVSS
VL: MTQSPNSLAVSLGGRATINCKTSQSILYRSNNKNYLAWYQHKPGQPPKLLIYWASTRESRVPDRFSGSGSRTDFTLTISGLQAEDVAVYYCQQYYNPPWTFGQGTKVEIK
B3: the AtheNA signal in assay [5] stood at 100; in assay [6], 114; in assay [7] it was 93; in assay [8], 114.

B4: Ab7957/293i (antibody, IgG1, V domains shown)
VH: LVESGGGVVPPGKSLRLSCAASGFTFSLYGIHWVRQAPGKGLEWVAVISYDGNTKYYTDSVKGRFTISRDNAKNTIYLQMNSLRLDDTAVYYCAKGAANSATFDFWGRGTMVTVSS
VL: MTQSPDSLTLSLGERATINCRSSRTVLYRSNNKNYLAWYQHKPGQPPKLLMSWASTRETGVPDRFSGSGSGTHFTLTITSLQPEDVAVYYCQQYYSPPWTFGQGTKVEIR
B4: the AtheNA signal in assay [4] was found to be 9; in assay [1], 15; in assay [2] it was 8; in [3] it was 6.

B5: Ab7970 (antibody, IgG1, V domains shown)
VH: LVESGGGVVQPGRSLRLSCAASGLTFSFYNFHWVRQTPGKGLEWVAGISYDATRTNYAGSVTGRFTISRDNSKKMLYLQMSSLGPQDTAVYHCARDRSDGQLHKVAFDSWGQGALVTVSS
VL: MTQSPDSLTLSLGERATINCRSSRTVLYRSNNKNYLAWYQHKPGQPPKLLMSWASTRETGVPDRFSGSGSGTHFTLTITSLQPEDVAVYYCQQYYSPPWTFGQGTKVEIR
With B5, the AtheNA signal in [9] was determined as 131; in assay [10], 86; in assay [11] it was 115.

B6: Ab7962/293i (antibody, V domains shown)
VH: LVESGGGLVQPGGSLRLSCAASGFTFSSYEMNWVRQAPGKGLEWVSYISSSGSTIYYADSVKGRFTISRDNAKNSLYLQMNSLRAEDTAVYYCARVEQLAPSPYMDVWGKGTTVTVSS
VL: MTQSLDSLTVSLGERATINCKSSQSLLYTSNNKNYLAWYQQKSGQPPKLLIYWASIRDSGVPDRFSGSGSATDFTLTINNLQAEDVAVYFCQQYYKTPLTFGGGTKVEVR
For B6, the results for the AtheNA signal in assay [1], in [2] and in assay [3] were 4, 1 and 3, respectively.

B7: Ab7955 (antibody, V domains shown)
VH: LVESGGGVVRPGRSLRLSCVASGFTFNAYGMHWVRQGPGKGLEWLAVISYEGKTVYYADSVKDRFTISRDNSRNTVSLHLNNLRGEDTAVYYCAKGSASAAVLQHWGQGTLVSVTS
VL: MTQSPGSLAVSLGSRATINCKSSRSLLYRSNNKNYLAWYQQKPGQSPRLLIYWASSRESGVPDRFSGGGSGTSFTLTISSLQAEDVAVYYCQQYFNPPWTFGQGTKVEIK
Take B7: the AtheNA signal is 90 in assay [1]; 8 in assay [12]; 60 in assay [2]; 3 in assay [13]; 44 in assay [3]; 2 in assay [14].
